Patent US20150119341A1 (PALATIN TECHNOLOGIES, published 2015)
Read-outs that look alike come from different tables or passages of the source. [ ]: non-standard residue; d: D form. Nle = CCCC[C@H](N)C(=O)O

Key:
[1] = target: T1, human melanocortin-1 receptor (hMCR-1) expressed by the human melanoma cell line HBL (human, UniProt Q01726 1-317); test: cell-based or functional assay
[2] = target: T1, human melanocortin-1 receptor (hMCR-1) …; test: cell-based or functional assay; remark: listed apart in the source
[3] = target: T2, recombinant human melanocortin-1 receptor (hMCR-1a) in membrane homogenates of HEK-293 cells (human, UniProt Q01726 1-317); test: competitive inhibition of [I125]-NDP-alpha-MSH, hMCR-1 HEK-293 membranes
T2 construct: whole, on cells; Used as membrane homogenates, not intact cells; also called hMCR-la; MC-1
T2 sequence (Q01726 whole entry): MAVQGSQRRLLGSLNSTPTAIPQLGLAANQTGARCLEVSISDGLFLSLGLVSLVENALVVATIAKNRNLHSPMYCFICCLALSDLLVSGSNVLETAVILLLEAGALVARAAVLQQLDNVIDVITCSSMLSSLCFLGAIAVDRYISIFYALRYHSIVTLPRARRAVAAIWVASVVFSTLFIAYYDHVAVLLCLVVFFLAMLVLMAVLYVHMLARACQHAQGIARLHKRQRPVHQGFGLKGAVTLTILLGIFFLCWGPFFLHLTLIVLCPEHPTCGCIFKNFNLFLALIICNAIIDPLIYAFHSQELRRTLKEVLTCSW
Method: (§1) A competitive inhibition binding assay was performed using membrane homogenates prepared from HEK-293 cells that express recombinant hMCR-la or hMCR-4 (in each instance where the h prefix refers to human), or alternatively membrane homogenates from B16-F10 mouse melanoma cells containing endogenous murine MCR-1. In the examples that follow, all MCR-1 and MCR-4 values are for human recombinant receptors, unless otherwise noted. Assays were performed in 96 well polypropylene round-bottom plates (VWR catalog number 12777-030).
(§2) Membrane homogenates were incubated with 0.1 nM [I¹²⁵]-NDP-α-MSH (Perkin Elmer) and increasing concentrations of test peptides of the present invention in buffer containing 25 mM HEPES buffer (pH 7.5) with 100 mM NaCl, 2 mM CaCl₂, 2 mM MgCl₂, 0.3 mM 1,10-phenanthroline, and 0.2% bovine serum albumin. After incubation for 90 minutes at 37° C., the assay mixture was filtered onto GF/B Unifilter plates (Perkin-Elmer catalog number 6005177) and washed with 3 mL of ice-cold buffer per well. Filters were air dried and 35 μL of scintillation cocktail added to each well. Plates were counted in a Microbeta counter for bound radioactivity. […] Maximal specific binding (100%) was defined as the difference in radioactivity (cpm) bound to cell membranes in the absence and presence of 1 μM NDP-α-MSH. Each assay was conducted in duplicate and the actual mean values are described, with results less than 0% reported as 0%. Ki values for peptides of the present invention were determined using Graph-Pad PRISM® curve-fitting software.

[4] = target: T3, recombinant human melanocortin-4 receptor (hMCR-4) in membrane homogenates of HEK-293 cells (human, UniProt P32245 1-332); test: competitive inhibition of [I125]-NDP-alpha-MSH, hMCR-4 HEK-293 membranes
T3 construct: whole, on cells; Used as membrane homogenates, not intact cells; also called MC-4
T3 sequence (P32245 whole entry): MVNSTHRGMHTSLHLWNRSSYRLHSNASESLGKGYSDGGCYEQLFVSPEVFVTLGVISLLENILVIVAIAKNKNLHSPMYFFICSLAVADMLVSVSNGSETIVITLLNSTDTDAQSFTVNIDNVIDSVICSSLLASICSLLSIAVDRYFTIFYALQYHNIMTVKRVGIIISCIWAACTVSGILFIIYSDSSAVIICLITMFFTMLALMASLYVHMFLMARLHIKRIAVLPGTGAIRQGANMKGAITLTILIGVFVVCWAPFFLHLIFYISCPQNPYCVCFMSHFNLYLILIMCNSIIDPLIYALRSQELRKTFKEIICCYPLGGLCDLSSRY
Method: as §1, §2

[5] = target: T1, human melanocortin-1 receptor (hMCR-1) …; test: cell-based or functional assay; remark: listed apart in the source
[6] = target: T1, human melanocortin-1 receptor (hMCR-1) …; test: cell-based or functional assay; remark: listed apart in the source
[7] = target: T1, human melanocortin-1 receptor (hMCR-1) …; test: cell-based or functional assay; remark: listed apart in the source
[8] = target: T1, human melanocortin-1 receptor (hMCR-1) …; test: cell-based or functional assay; remark: listed apart in the source
[9] = target: T1, human melanocortin-1 receptor (hMCR-1) …; test: cell-based or functional assay; remark: listed apart in the source
[10] = target: T1, human melanocortin-1 receptor (hMCR-1) …; test: cell-based or functional assay; remark: listed apart in the source
[11] = target: T1, human melanocortin-1 receptor (hMCR-1) …; test: cell-based or functional assay; remark: listed apart in the source
[12] = target: T1, human melanocortin-1 receptor (hMCR-1) …; test: cell-based or functional assay; remark: listed apart in the source
[13] = target: T1, human melanocortin-1 receptor (hMCR-1) …; test: cell-based or functional assay; remark: listed apart in the source
[14] = target: T1, human melanocortin-1 receptor (hMCR-1) …; test: cell-based or functional assay; remark: listed apart in the source
[15] = target: T1, human melanocortin-1 receptor (hMCR-1) …; test: cell-based or functional assay; remark: listed apart in the source
[16] = target: T1, human melanocortin-1 receptor (hMCR-1) …; test: cell-based or functional assay; remark: listed apart in the source

T1 sequence (Q01726 whole entry): as the sequence (Q01726 whole entry) above

| Ki [3] [nM] | Ki [4] [nM] | Binder | further results |
| --- | --- | --- | --- |
| – | – | Ac-[Nle][dF]RAW-NH2 (SMILES CCCC[C@H](NC(C)=O)C(=O)N[C@H](Cc1ccccc1)C(=O)N[C@@H](CCCNC(=N)N)C(=O)N[C@@H](C)C(=O)N[C@@H](Cc1c[nH]c2ccccc12)C(N)=O) [Ac-Nle-D-Phe-Arg-Ala-Trp-NH2] | MC-1 EC50 (average; cAMP HBL) [1]: 402 nM |
| – | – | Ac-[Nle]AH[dF]RP[dW]-NH2 (SMILES CCCC[C@H](NC(C)=O)C(=O)N[C@@H](C)C(=O)N[C@@H](Cc1c[nH]cn1)C(=O)N[C@H](Cc1ccccc1)C(=O)N[C@@H](CCCNC(=N)N)C(=O)N1CCC[C@H]1C(=O)N[C@H](Cc1c[nH]c2ccccc12)C(N)=O) [Ac-Nle-Ala-His-D-Phe-Arg-Pro-D-Trp-NH2] | MC-1 EC50 (average; cAMP HBL) [2]: 0.17 nM |
| 5920 | 10000 | Ac-[Nle]HFRAW-NH2 (SMILES CCCC[C@H](NC(C)=O)C(=O)N[C@@H](Cc1c[nH]cn1)C(=O)N[C@@H](Cc1ccccc1)C(=O)N[C@@H](CCCNC(=N)N)C(=O)N[C@@H](C)C(=O)N[C@@H](Cc1c[nH]c2ccccc12)C(N)=O, synthetic linear peptide) [Ac-Nle-His-Phe-Arg-Ala-Trp-NH2] | – |
| 6 | 7420 | Ac-[Nle]AH[dF]RAW-OH (SMILES CCCC[C@H](NC(C)=O)C(=O)N[C@@H](C)C(=O)N[C@@H](Cc1c[nH]cn1)C(=O)N[C@H](Cc1ccccc1)C(=O)N[C@@H](CCCNC(=N)N)C(=O)N[C@@H](C)C(=O)N[C@@H](Cc1c[nH]c2ccccc12)C(=O)O, synthetic linear peptide) [Ac-Nle-Ala-His-D-Phe-Arg-Ala-Trp-OH] | MC-1 EC50 (average; cAMP HBL) [5]: 0.4 nM |
| 0.2 | 1740 | Ac-[Nle]AH[dF]RAW-NH2 (SMILES CCCC[C@H](NC(C)=O)C(=O)N[C@@H](C)C(=O)N[C@@H](Cc1c[nH]cn1)C(=O)N[C@H](Cc1ccccc1)C(=O)N[C@@H](CCCNC(=N)N)C(=O)N[C@@H](C)C(=O)N[C@@H](Cc1c[nH]c2ccccc12)C(N)=O, synthetic linear peptide) [Ac-Nle-Ala-His-D-Phe-Arg-Ala-Trp-NH2] | MC-1 EC50 (average; cAMP HBL) [6]: 0.02 nM |
| 0.45 | 1180 | Ac-[Nle]AR[dF]RAW-NH2 (SMILES CCCC[C@H](NC(C)=O)C(=O)N[C@@H](C)C(=O)N[C@@H](CCCNC(=N)N)C(=O)N[C@H](Cc1ccccc1)C(=O)N[C@@H](CCCNC(=N)N)C(=O)N[C@@H](C)C(=O)N[C@@H](Cc1c[nH]c2ccccc12)C(N)=O, synthetic linear peptide) [Ac-Nle-Ala-Arg-D-Phe-Arg-Ala-Trp-NH2] | MC-1 EC50 (average; cAMP HBL) [7]: 0.04 nM |
| 185 | 20 | Ac-[Nle]AH[dF]RPW-NH2 (SMILES CCCC[C@H](NC(C)=O)C(=O)N[C@@H](C)C(=O)N[C@@H](Cc1c[nH]cn1)C(=O)N[C@H](Cc1ccccc1)C(=O)N[C@@H](CCCNC(=N)N)C(=O)N1CCC[C@H]1C(=O)N[C@@H](Cc1c[nH]c2ccccc12)C(N)=O, synthetic linear peptide) [Ac-Nle-Ala-His-D-Phe-Arg-Pro-Trp-NH2] | MC-1 EC50 (average; cAMP HBL) [8]: 9 nM |
| 43 | 10000 | Ac-[Nle]AH[dF]AAW-NH2 (SMILES CCCC[C@H](NC(C)=O)C(=O)N[C@@H](C)C(=O)N[C@@H](Cc1c[nH]cn1)C(=O)N[C@H](Cc1ccccc1)C(=O)N[C@@H](C)C(=O)N[C@@H](C)C(=O)N[C@@H](Cc1c[nH]c2ccccc12)C(N)=O, synthetic linear peptide) [Ac-Nle-Ala-His-D-Phe-Ala-Ala-Trp-NH2] | MC-1 EC50 (average; cAMP HBL) [9]: 4 nM |
| 20 | 1620 | Ac-[Nle]AF[dF]RAW-NH2 (SMILES CCCC[C@H](NC(C)=O)C(=O)N[C@@H](C)C(=O)N[C@@H](Cc1ccccc1)C(=O)N[C@H](Cc1ccccc1)C(=O)N[C@@H](CCCNC(=N)N)C(=O)N[C@@H](C)C(=O)N[C@@H](Cc1c[nH]c2ccccc12)C(N)=O, synthetic linear peptide) [Ac-Nle-Ala-Phe-D-Phe-Arg-Ala-Trp-NH2] | MC-1 EC50 (average; cAMP HBL) [10]: 6 nM |
| 195 | 10000 | Ac-[Nle]AA[dF]RAW-NH2 (SMILES CCCC[C@H](NC(C)=O)C(=O)N[C@@H](C)C(=O)N[C@@H](C)C(=O)N[C@H](Cc1ccccc1)C(=O)N[C@@H](CCCNC(=N)N)C(=O)N[C@@H](C)C(=O)N[C@@H](Cc1c[nH]c2ccccc12)C(N)=O, synthetic linear peptide) [Ac-Nle-Ala-Ala-D-Phe-Arg-Ala-Trp-NH2] | MC-1 EC50 (average; cAMP HBL) [11]: 8 nM |
| – | – | Ac-[Nle]AH[dF]R[dP][dW]-NH2 (SMILES CCCC[C@H](NC(C)=O)C(=O)N[C@@H](C)C(=O)N[C@@H](Cc1c[nH]cn1)C(=O)N[C@H](Cc1ccccc1)C(=O)N[C@@H](CCCNC(=N)N)C(=O)N1CCC[C@@H]1C(=O)N[C@H](Cc1c[nH]c2ccccc12)C(N)=O) [Ac-Nle-Ala-His-D-Phe-Arg-D-Pro-D-Trp-NH2] | MC-1 EC50 (average; cAMP HBL) [12]: 2 nM |
| – | – | Ac-[Nle]AH[dF]RA[dW]-NH2 (SMILES CCCC[C@H](NC(C)=O)C(=O)N[C@@H](C)C(=O)N[C@@H](Cc1c[nH]cn1)C(=O)N[C@H](Cc1ccccc1)C(=O)N[C@@H](CCCNC(=N)N)C(=O)N[C@@H](C)C(=O)N[C@H](Cc1c[nH]c2ccccc12)C(N)=O) [Ac-Nle-Ala-His-D-Phe-Arg-Ala-D-Trp-NH2] | MC-1 EC50 (average; cAMP HBL) [13]: 0.6 nM |
| 6680 | 10000 | Ac-[Nle]A[dF]RAW-NH2 (SMILES CCCC[C@H](NC(C)=O)C(=O)N[C@@H](C)C(=O)N[C@H](Cc1ccccc1)C(=O)N[C@@H](CCCNC(=N)N)C(=O)N[C@@H](C)C(=O)N[C@@H](Cc1c[nH]c2ccccc12)C(N)=O, synthetic linear peptide) [Ac-Nle-Ala-D-Phe-Arg-Ala-Trp-NH2] | – |
| 85 | 10000 | Ac-[Nle]AHFRAW-NH2 (SMILES CCCC[C@H](NC(C)=O)C(=O)N[C@@H](C)C(=O)N[C@@H](Cc1c[nH]cn1)C(=O)N[C@@H](Cc1ccccc1)C(=O)N[C@@H](CCCNC(=N)N)C(=O)N[C@@H](C)C(=O)N[C@@H](Cc1c[nH]c2ccccc12)C(N)=O, synthetic linear peptide) [Ac-Nle-Ala-His-Phe-Arg-Ala-Trp-NH2] | MC-1 EC50 (average; cAMP HBL) [14]: 4 nM |
| 340 | 10000 | Ac-[Nle]AHFRGW-NH2 (SMILES CCCC[C@H](NC(C)=O)C(=O)N[C@@H](C)C(=O)N[C@@H](Cc1c[nH]cn1)C(=O)N[C@@H](Cc1ccccc1)C(=O)N[C@@H](CCCNC(=N)N)C(=O)NCC(=O)N[C@@H](Cc1c[nH]c2ccccc12)C(N)=O, synthetic linear peptide) [Ac-Nle-Ala-His-Phe-Arg-Gly-Trp-NH2] | MC-1 EC50 (average; cAMP HBL) [15]: 21 nM |
| – | – | Ac-[Nle]AH[dF]R[dP]W-NH2 (SMILES CCCC[C@H](NC(C)=O)C(=O)N[C@@H](C)C(=O)N[C@@H](Cc1c[nH]cn1)C(=O)N[C@H](Cc1ccccc1)C(=O)N[C@@H](CCCNC(=N)N)C(=O)N1CCC[C@@H]1C(=O)N[C@@H](Cc1c[nH]c2ccccc12)C(N)=O) [Ac-Nle-Ala-His-D-Phe-Arg-D-Pro-Trp-NH2] | MC-1 EC50 (average; cAMP HBL) [16]: 1 nM |
